We go through 1 protein from article PMC11153552, “Clock gene homologs lin-42 and kin-20 regulate circadian rhythms in C. elegans” (Scientific Reports, 2024).

This series deals with the molecule itself. Kind of series: crystal structure; hanging-drop vapor diffusion at 22 °C; LIN-42 41-315 at 4 mg/mL; reservoir 150 mM lithium sulfate, 1.5 M sodium potassium tartrate; molecular replacement with mouse PER2 PAS-B (PDB 3GDI).

B1: LIN-42 N-terminus residues 41-315 (domain or fragment, C. elegans)
chain: GAMDPEFNTWSSSSVEFLDDADDNRLLFTCTFTLPHGTVLSSATYADGFHEQYLTIGDNFLARLEPKGQSFILSAAAASVKQRIFARVTMPDGALRACELLCEFETDRAKITVLALRSAFSLQASHVSSNFHVFTFITKHSSTCALTHIDYASIPYLGLLPTDLIGKSLLAFVYSPDVHVVRQAHIDLHNSRGKIVKSIADLRLVAHNGSILRCQTEWSAYVNPWTRKMELVVARHRICSLPIGDSDVISSPPPGIQSNTLPPVMAKTFEDELRTIMNKPVP
notes: remnant left on the N-terminus of LIN-42 after TEV cleavage of the HisGβ1 tag; LIN-42 (PERIOD homolog), C. elegans, residues 41-315; Crystallised construct was 41-315; Density was poor for the putative N-terminal PAS domain (residues 41-146), so only the PAS-B dimer was modelled; also called protease-resistant core of the LIN-42 N-terminus; LIN-42 PAS-B dimer; source: E. coli Rosetta2 (DE3), …
In the case of B1, the binding result is reported as “binds”.
